Measured values as given in IntAct's records for PubMed 36931259.

B1: 14-3-3 protein sigma (Homo sapiens), P31947 (parent)
chain: MERASLIQKAKLAEQAERYEDMAAFMKGAVEKGEELSCEERNLLSVAYKNVVGGQRAAWRVLSSIEQKSNEEGSEEKGPEVREYREKVETELQGVCDTVLGLLDSHLIKEAGDAESRVFYLKMKGDYYRYLAEVATGDDKKRIIDSARSAYQEAMDISKKEMPPTNPIRLGLALNFSVFHYEIANSPEEAISLAKTTFDEAMADLHTLSEDSYKDSTLIMQLLRDNLTLWTADNAGEEGGEAPQEPQS
partner: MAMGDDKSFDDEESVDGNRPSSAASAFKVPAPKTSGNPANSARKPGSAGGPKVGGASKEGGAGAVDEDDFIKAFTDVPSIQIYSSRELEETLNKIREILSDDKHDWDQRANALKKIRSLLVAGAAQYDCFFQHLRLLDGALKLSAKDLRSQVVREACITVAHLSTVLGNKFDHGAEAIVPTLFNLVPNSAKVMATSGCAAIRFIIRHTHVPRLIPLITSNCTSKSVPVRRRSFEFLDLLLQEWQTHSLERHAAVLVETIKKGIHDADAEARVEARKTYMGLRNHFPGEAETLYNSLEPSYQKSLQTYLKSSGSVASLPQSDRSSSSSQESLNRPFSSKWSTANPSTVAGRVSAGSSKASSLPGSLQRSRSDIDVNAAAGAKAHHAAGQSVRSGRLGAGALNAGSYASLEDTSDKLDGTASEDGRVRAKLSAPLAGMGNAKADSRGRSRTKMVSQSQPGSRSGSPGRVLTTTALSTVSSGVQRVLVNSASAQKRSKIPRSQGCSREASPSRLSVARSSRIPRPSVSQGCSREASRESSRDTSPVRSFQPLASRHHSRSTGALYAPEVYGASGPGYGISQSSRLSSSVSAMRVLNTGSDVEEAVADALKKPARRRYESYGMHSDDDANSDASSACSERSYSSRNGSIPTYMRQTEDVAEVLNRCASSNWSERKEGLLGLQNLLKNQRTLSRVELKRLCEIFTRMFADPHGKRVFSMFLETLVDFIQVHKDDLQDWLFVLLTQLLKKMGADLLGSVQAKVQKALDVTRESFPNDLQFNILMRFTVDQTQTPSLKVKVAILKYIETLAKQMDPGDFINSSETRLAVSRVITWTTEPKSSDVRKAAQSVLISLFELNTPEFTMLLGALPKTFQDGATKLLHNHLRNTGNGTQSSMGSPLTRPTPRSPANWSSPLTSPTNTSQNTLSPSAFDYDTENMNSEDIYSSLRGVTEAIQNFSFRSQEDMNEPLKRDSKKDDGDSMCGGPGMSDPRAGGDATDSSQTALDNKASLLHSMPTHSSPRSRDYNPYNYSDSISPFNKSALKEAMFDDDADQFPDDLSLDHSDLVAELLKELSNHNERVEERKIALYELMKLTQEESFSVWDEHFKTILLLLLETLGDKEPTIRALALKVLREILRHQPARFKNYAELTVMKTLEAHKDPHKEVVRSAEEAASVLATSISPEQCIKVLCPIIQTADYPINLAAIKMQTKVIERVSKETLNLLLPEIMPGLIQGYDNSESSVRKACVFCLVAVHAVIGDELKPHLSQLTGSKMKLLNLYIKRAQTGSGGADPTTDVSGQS
B2: 14-3-3 protein sigma (Homo sapiens), P31947 (parent)
chain: B1 chain
partner: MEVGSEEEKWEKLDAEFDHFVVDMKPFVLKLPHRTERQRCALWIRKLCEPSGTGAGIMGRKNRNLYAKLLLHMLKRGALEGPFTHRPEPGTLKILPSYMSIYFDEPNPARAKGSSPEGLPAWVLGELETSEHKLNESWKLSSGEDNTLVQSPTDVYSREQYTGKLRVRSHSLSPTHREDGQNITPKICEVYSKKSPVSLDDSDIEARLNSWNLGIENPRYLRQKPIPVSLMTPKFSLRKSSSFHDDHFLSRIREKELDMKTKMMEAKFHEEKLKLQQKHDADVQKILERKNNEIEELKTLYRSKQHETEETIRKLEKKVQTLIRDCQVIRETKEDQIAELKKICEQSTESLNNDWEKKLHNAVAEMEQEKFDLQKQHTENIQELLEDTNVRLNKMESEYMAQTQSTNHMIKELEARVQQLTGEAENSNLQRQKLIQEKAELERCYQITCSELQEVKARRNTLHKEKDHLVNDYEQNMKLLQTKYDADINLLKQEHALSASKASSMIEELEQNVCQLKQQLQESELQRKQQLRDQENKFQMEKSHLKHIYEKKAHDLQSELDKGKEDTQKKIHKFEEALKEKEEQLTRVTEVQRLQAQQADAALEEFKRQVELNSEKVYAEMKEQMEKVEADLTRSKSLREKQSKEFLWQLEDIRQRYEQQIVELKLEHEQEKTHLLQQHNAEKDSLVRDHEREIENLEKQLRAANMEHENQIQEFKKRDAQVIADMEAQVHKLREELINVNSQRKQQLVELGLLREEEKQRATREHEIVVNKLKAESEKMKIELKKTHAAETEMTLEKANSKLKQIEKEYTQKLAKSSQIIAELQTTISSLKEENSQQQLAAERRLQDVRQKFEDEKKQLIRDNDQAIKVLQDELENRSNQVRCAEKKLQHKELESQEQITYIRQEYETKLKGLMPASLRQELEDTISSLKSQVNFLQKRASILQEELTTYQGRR
B3: 14-3-3 protein sigma (Homo sapiens), P31947 (parent)
chain: B1 chain
partner: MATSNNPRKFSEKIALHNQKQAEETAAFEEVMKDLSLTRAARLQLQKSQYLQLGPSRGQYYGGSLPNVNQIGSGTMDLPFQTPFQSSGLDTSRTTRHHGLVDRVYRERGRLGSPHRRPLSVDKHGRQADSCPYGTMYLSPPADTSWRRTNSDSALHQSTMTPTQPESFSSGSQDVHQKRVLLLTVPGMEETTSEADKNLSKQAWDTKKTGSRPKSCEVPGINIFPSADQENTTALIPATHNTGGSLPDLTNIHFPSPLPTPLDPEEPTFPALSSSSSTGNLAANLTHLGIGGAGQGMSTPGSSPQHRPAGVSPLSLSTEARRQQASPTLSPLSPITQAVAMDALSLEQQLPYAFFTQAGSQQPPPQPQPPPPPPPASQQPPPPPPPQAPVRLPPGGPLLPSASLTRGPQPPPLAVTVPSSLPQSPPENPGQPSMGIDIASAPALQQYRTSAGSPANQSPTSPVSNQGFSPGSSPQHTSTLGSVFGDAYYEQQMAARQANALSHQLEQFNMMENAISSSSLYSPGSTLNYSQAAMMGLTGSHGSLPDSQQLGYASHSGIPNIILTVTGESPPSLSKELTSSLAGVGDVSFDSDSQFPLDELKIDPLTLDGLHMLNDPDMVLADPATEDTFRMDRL
B4: Glutamate receptor-interacting protein 1 (Homo sapiens), Q9Y3R0-3 (parent)
chain: MIAVSFKCRCQILRRLTKDESPYTKSASQTKPPDGALAVRRQSIPEEFKGSTVVELMKKEGTTLGLTVSGGIDKDGKPRVSNLRQGGIAARSDQLDVGDYIKAVNGINLAKFRHDEIISLLKNVGERVVLEVEYELPPVSVQGSSVIFRTVEVTLHKEGNTFGFVIRGGAHDDRNKSRPVVITCVRPGGPADREGTIKPGDRLLSVDGIRLLGTTHAEAMSILKQCGQEAALLIEYDVSVMDSVATASGPLLVEVAKTPGASLGVALTTSMCCNKQVIVIDKIKSASIADRCGALHVGDHILSIDGTSMEYCTLAEATQFLANTTDQVKLEILPHHQTRLALKGPDHAALVSSSFSPTSMSAYSLSSLNMGTLPRSLYSTSPRGTMMRRRLKKKDFKSSLSLASSTVGLAGQVVHTETTEVVLTADPVTGFGIQLQGSVFATETLSSPPLISYIEADSPAERCGVLQIGDRVMAINGIPTEDSTFEEASQLLRDSSITSKVTLEIEFDVAESVIPSSGTFHVKLPKKHNVELGITISSPSSRKPGDPLVISDIKKGSVAHRTGTLELGDKLLAIDNIRLDNCSMEDAVQILQQCEDLVKLKIRKDEDNSDEQESSGAIIYTVELKRYGGPLGITISGTEEPFDPIIISSLTKGGLAERTGAIHIGDRILAINSSSLKGKPLSEAIHLLQMAGETVTLKIKKQTDAQSASSPKKFPISSHLSDLGDVEEDSSPAQKPGKLSDMYPSTVPSVDSAVDSWDGSAIDTSYGTQGTSFQASGYNFNTYDWRSPKQRGSLSPVTKPRSQTYPDVGLSYEDWDRSTASGFAGAADSAETEQEENFWSQALEDLETCGQSGILRELEEKADRRVSLRNMTLLATIMSGSTMSLNHEAPTPRSQLGRQASFQERSSSRPHYSQTTRSNTLPSDVGRKSVTLRKMKQEIKEIMSPTPVELHKVTLYKDSDMEDFGFSVADGLLEKGVYVKNIRPAGPGDLGGLKPYDRLLQVNHVRTRDFDCCLVVPLIAESGNKLDLVISRNPLASQKSIDQQSLPGDWSEQNSAFFQQPSHGGNLETREPTNTL
partner: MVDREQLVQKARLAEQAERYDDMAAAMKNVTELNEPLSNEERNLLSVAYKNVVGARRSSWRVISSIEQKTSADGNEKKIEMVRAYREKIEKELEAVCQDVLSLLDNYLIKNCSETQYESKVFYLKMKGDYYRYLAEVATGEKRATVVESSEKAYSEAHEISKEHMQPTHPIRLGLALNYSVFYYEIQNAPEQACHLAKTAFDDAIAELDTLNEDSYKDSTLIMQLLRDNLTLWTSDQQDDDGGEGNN
B5: 14-3-3 protein sigma (Homo sapiens), P31947 (parent)
chain: B1 chain
partner: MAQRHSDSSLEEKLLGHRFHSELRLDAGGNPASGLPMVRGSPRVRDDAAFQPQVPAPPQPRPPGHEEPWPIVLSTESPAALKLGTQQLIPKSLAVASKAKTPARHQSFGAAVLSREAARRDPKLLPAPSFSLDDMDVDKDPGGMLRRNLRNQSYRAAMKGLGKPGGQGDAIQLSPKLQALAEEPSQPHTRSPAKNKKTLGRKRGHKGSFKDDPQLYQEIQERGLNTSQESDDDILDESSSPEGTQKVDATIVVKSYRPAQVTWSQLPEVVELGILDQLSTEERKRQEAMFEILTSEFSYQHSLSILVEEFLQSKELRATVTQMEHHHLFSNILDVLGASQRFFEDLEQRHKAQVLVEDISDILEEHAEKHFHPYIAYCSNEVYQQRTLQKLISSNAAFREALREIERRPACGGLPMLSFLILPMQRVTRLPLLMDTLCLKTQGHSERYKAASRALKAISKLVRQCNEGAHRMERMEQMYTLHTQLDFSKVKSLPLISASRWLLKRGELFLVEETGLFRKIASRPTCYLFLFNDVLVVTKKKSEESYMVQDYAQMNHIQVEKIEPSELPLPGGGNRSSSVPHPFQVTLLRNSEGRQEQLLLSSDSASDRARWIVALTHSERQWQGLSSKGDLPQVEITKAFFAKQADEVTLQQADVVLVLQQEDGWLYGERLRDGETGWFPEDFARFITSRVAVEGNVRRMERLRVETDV

Variants of: B1
Settings: with clap2_human CLASP2, O75122

| effect of a mutation on the interaction | Variant |
| --- | --- |
| decreasing interaction strength | K49E;R56E;V178D |

Variants of: B2
Settings: with ce112_human CEP112, Q8N8E3

| effect of a mutation on the interaction | Variant |
| --- | --- |
| decreasing interaction strength | K49E;R56E;V178D |

Variants of: B3
Settings: with crtc1_human CRTC1, Q6UUV9

| effect of a mutation on the interaction | Variant |
| --- | --- |
| decreasing interaction strength | K49E;R56E;V178D |

Variants of: B4
Settings: with 1433g_human YWHAG

| effect of a mutation on the interaction | Variant |
| --- | --- |
| disrupting interaction strength | T17A;S43A;S901A;T920A |

Variants of: B5
Settings: with arhgg_human ARHGEF16, Q5VV41

| effect of a mutation on the interaction | Variant |
| --- | --- |
| decreasing interaction strength | K49E;R56E;V178D |
